Measurements published in US20230322953A1 (HARBOUR BIOMED SHANGHAI, published 2023).

T1: biotinylated human BCMA-Fc, Avitag recombinant protein (ACRO Biosystems, #BC7-H82F0) (human, UniProt Q02223 1-54, biotinylated)
T1 construct: extracellular domain; Bought protein; also called human BCMA protein; recombinant human BCMA-ECD-Fc; not shown: Fc of the bought fusion protein; Avitag
T1 sequence (looked up): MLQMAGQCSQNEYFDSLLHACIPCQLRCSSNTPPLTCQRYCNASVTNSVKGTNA

T2: human BCMA (human, UniProt Q02223 1-184)
T2 sequence (looked up): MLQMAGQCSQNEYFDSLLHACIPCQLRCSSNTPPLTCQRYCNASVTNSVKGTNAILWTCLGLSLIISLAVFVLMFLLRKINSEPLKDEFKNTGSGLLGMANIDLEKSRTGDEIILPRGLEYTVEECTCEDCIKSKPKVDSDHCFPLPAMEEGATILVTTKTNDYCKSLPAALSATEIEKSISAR

B1: PR000184, anti-CTLA4 heavy-chain antibody CL5v3, hIgG1 (antibody, V domains shown)
VH: EVQLVESGGGLIQPGGSLRLSCAVSGFTVSKNYMSWVRQAPGKGLEWVSVVYSGGSKTYADSVKGRFTISRDNSKNTLYLQMNSLRAEDTAVYYCARAVPHSPSSFDIWGQGTMVTVSS
notes: heavy-chain-only antibody (VH-Fc dimer); also called anti-CTLA4 HCAb monoclonal antibody PR000184
B2: PR000943, anti-BCMA HCAb antibody, clone 1005P16A10 (antibody, human IgG1, V domains shown)
VH: EVQLVETGGGLIQPGGSLRLSCAASGFPVSSNYMSWVRQAPGKGLEWVSVIFSGGRTYYADSVKGRFTISRDNSKNTLYLQMNSLRAEDTAVYYCARRNWIDGRDAFDIWGQGTMVTVSS
notes: Heavy-chain-only antibody (HCAb), human IgG1 Fc, no light chain
B3: PR000401 (bispecific antibody, human IgG1, kappa, L234A L235A)
light: DIQMTQSPSTLSASVGDRVTVTCRASQSIYIWLAWYQQKPGKAPNLLIYKASSLETGVPSRFSGSGSGTEFTLTISSLQPDDFATYYCQQYYGSSRTFGQGTKVEIKRTVAAPSVFIFPPSDEQLKSGTASVVCLLNNFYPREAKVQWKVDNALQSGNSQESVTEQDSKDSTYSLSSTLTLSKADYEKHKVYACEVTHQGLSSPVTKSFNRGEC
chain: EVQLVESGGGLVQPGGSLRLSCAASGFTFSSYWMSWVRQAPGKGLEWVANIKQEGSEKYYVDSVKGRFTISRDNAKNSLYLQMNSLRAEDTAVYYCARDRAVAGAFDIWGQGTMVTVSSASTKGPSVFPLAPSSKSTSGGTAALGCLVKDYFPEPVTVSWNSGALTSGVHTFPAVLQSSGLYSLSSVVTVPSSSLGTQTYICNVNHKPSNTKVDKKVEPKSCDKTHTCPPCPAPEAAGGPSVFLFPPKPKDTLMISRTPEVTCVVVDVSHEDPEVKFNWYVDGVEVHNAKTKPREEQYNSTYRVVSVLTVLHQDWLNGKEYKCKVSNKALGAPIEKTISKAKGQPREPQVYTLPPSREEMTKNQVSLTCLVKGFYPSDIAVEWESNGQPENNYKTTPPVLDSDGSFFLYSKLTVDKSRWQQGNVFSCSVMHEALHNHYTQKSLSLSPGKLEPKSSDKTHTPPPPPRTEVQLVESGGGLIQPGGSLRLSCAVSGFTVSKNYMSWVRQAPGKGLEWVSVVYSGGSKTYADSVKGRFTISRDNSKNTLYLQMNSLRAEDTAVYYCARAVPHSPSSFDIWGQGTMVTVSS
notes: PD-L1×CTLA4, structure 5
B4: PR000402 (bispecific antibody, human IgG1, kappa, L234A L235A)
light: B3 light
chain: EVQLVESGGGLVQPGGSLRLSCAASGFTFSSYWMSWVRQAPGKGLEWVANIKQEGSEKYYVDSVKGRFTISRDNAKNSLYLQMNSLRAEDTAVYYCARDRAVAGAFDIWGQGTMVTVSSASTKGPSVFPLAPSSKSTSGGTAALGCLVKDYFPEPVTVSWNSGALTSGVHTFPAVLQSSGLYSLSSVVTVPSSSLGTQTYICNVNHKPSNTKVDKKVEPKSCDKTHTCPPCPAPEAAGGPSVFLFPPKPKDTLMISRTPEVTCVVVDVSHEDPEVKFNWYVDGVEVHNAKTKPREEQYNSTYRVVSVLTVLHQDWLNGKEYKCKVSNKALGAPIEKTISKAKGQPREPQVYTLPPSREEMTKNQVSLTCLVKGFYPSDIAVEWESNGQPENNYKTTPPVLDSDGSFFLYSKLTVDKSRWQQGNVFSCSVMHEALHNHYTQKSLSLSPGKLGGGGSGGGGSGGGGSRTEVQLVESGGGLIQPGGSLRLSCAVSGFTVSKNYMSWVRQAPGKGLEWVSVVYSGGSKTYADSVKGRFTISRDNSKNTLYLQMNSLRAEDTAVYYCARAVPHSPSSFDIWGQGTMVTVSS
notes: PD-L1×CTLA4, structure 5
B5: PR000265, anti-PD-L1 91G3H5H3(D54E), hIgG1(N297A) (antibody)
heavy: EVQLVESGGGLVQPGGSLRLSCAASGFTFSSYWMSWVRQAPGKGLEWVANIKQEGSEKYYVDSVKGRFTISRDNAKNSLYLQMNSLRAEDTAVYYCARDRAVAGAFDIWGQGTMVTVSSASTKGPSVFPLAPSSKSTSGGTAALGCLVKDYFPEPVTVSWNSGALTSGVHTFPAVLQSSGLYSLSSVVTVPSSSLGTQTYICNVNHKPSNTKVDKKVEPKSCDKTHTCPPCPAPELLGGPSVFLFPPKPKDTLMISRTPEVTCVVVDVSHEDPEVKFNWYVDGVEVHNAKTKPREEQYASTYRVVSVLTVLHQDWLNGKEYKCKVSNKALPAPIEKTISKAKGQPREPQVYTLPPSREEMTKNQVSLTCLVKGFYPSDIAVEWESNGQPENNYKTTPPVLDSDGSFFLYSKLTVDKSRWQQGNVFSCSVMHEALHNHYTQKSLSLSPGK
light: B3 light
B6: PR000274, anti-BCMA monoclonal antibody CA8-J6M0 (antibody, human IgG1, kappa, V domains shown)
VH: QVQLVQSGAEVKKPGSSVKVSCKASGGTFSNYWMHWVRQAPGQGLEWMGATYRGHSDTYYNQKFKGRVTITADKSTSTAYMELSSLRSEDTAVYYCARGAIYDGYDVLDNWGQGTLVTVSS
VL: DIQMTQSPSSLSASVGDRVTITCSASQDISNYLNWYQQKPGKAPKLLIYYTSNLHSGVPSRFSGSGSGTDFTLTISSLQPEDFATYYCQQYRKLPWTFGQGTKLEIKR
notes: Control antibody; also called Positive control 1; CA8-J6M0 hIgG1
B7: PR001046, anti-BCMA HCAb antibody, clone 1005P63B7 (antibody, human IgG1, V domains shown)
VH: EVQLVETGGGLIQPGGSLRLSCAASGFTVSDNYMTWVRQAPGKGLEWVSVIFSGGNTYYADSVKGRFTISRDNAKNTLYLQMNSLRAEDTALYYCARRNYDDTRGTDVFDIWGQGTMVTVSS
notes: as for B2

Assays:
[1] = molecular target: T3, biotinylated human CTLA4-Fc protein (ACRO Biosystems, #CT4-H82F3) (human, UniProt P16410 36-161, biotinylated); assay: competition ELISA: biotinylated hCTLA4-Fc to coated B7-1-Fc
T3 construct: bought; also called human CTLA4 protein
T3 sequence (P16410 36-161 limits assumed): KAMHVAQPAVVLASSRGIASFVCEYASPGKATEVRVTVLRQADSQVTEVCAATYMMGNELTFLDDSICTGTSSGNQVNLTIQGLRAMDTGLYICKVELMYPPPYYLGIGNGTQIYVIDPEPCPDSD

[2] = molecular target: T4, human CTLA4-His protein (ACRO Biosystems, #CT4-H5229) (human, UniProt P16410 36-161); assay: ELISA, coated hCTLA4-His
T4 construct: extracellular domain; bought; also called hCTLA4-His; human CTLA4 extracellular domain recombinant protein
T4 sequence (P16410 36-161): as the sequence (P16410 36-161 limits assumed) above

[3] = molecular target: T5, human CTLA4 on cells (CHO-K1/hCTLA4; HEK293/hCTLA4; 293F-hCTLA4) (human, UniProt P16410 36-223); assay: FACS, HEK293/hCTLA4 cells
T5 construct: whole, on cells
T5 sequence (P16410 36-223): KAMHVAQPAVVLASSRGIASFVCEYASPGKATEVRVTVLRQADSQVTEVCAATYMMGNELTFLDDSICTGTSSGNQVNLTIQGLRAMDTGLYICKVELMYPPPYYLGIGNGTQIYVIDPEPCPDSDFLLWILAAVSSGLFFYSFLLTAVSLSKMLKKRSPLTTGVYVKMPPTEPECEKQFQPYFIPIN

[4] = molecular target: T5, human CTLA4 on cells (CHO-K1/hCTLA4; …); assay: FACS, CHO-K1/hCTLA4 cells (Test 1)
[5] = molecular target: T5, human CTLA4 on cells (CHO-K1/hCTLA4; …); assay: competition FACS: biotinylated B7-1-Fc to CHO-K1/hCTLA4 cells (Test 1)
[6] = molecular target: T5, human CTLA4 on cells (CHO-K1/hCTLA4; …); assay: competition FACS: biotinylated B7-1-Fc to CHO-K1/hCTLA4 cells (Test 2)
[7] = molecular target: T5, human CTLA4 on cells (CHO-K1/hCTLA4; …); assay: FACS, CHO-K1/hCTLA4 cells (Test 2)
[8] = molecular target: T5, human CTLA4 on cells (CHO-K1/hCTLA4; …); assay: cell-based or functional assay
[9] = molecular target: T1, biotinylated human BCMA-Fc, Avitag …; assay: BLI (Octet Red96e), biotinylated BCMA-Fc on SA sensor, antibody in solution, 1:1 global fit
human BCMA [10] = molecular target: T2, human BCMA; assay: cell-based or functional assay
cynomolgus monkey BCMA = molecular target: T6, cynomolgus monkey BCMA (cynomolgus monkey); assay: flow cytometry, HEK293T/cyno BCMA cells
T6 construct: whole, on cells; also called cyno BCMA; HEK293T/cyno BCMA cells

human BCMA [11] = molecular target: T2, human BCMA; assay: flow cytometry, HEK293T/hBCMA cells
human BCMA [12] = molecular target: T2, human BCMA; assay: flow cytometry, NCI-H929 cells
[13] = molecular target: T7, human PD-L1 on cells (CHO-K1/hPDL1; MDA-MB-231) (human, UniProt Q9NZQ7 19-290); assay: FACS, MDA-MB-231 cells
T7 construct: whole, on cells
T7 sequence (Q9NZQ7 19-290): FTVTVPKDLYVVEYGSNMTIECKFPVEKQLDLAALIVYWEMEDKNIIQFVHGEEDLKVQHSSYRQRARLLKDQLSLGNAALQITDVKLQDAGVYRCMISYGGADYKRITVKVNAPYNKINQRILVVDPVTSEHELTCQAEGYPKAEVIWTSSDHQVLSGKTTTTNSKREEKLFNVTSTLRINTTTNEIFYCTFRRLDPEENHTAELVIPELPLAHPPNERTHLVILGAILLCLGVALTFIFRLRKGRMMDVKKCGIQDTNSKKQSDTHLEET

Row | Binder | EC50 [3] [nM] | Maximum MFI [3] [MFI] | EC50 (nM), target cell killing mediated by antibody internalization (HEK293T/hBCMA cells, a-hFc-MMAF) (human BCMA [10]) [nM] | Maximum killing rate (%), target cell killing mediated by antibody internalization (HEK293T/hBCMA cells, a-hFc-MMAF) (human BCMA [10]) [%] | EC50 (cynomolgus monkey BCMA) [nM] | Maximum MFI (cynomolgus monkey BCMA) | EC50 (human BCMA [11]) [nM] | Maximum MFI (human BCMA [11]) | EC50 (human BCMA [12]) [nM] | Maximum MFI (human BCMA [12]) | EC50 [13] [nM] | Maximum MFI [13] [MFI] | further results
1 | B1 | 1.15 | 2260 |  |  |  |  |  |  |  |  |  |  | IC50 [1]: 2.67 nM; Maximum inhibition rate (%) [1]: 97.2%; EC50 [2]: 0.599 nM; Maximum OD450 [2]: 3.01 OD450; EC50 [4]: 1.69 nM; Maximum MFI [4]: 1670 MFI; IC50 [5]: 4.13 nM; Maximum inhibition rate (%) [5]: 99.7%; IC50 [6]: 3.01 nM; Maximum inhibition rate (%) [6]: 100%; EC50 [7]: 4.64 nM; Maximum MFI [7]: 722 MFI; ADCC killing of 293F-hCTLA4 cells, EC50 [8]: 0.015 nM; ADCC killing of 293F-hCTLA4 cells, Maximum killing rate (%) [8]: 30.2%
2 | B2 |  |  | 0.492 | 78.7 | 0.329 | 64000 | 0.153 | 70000 | 4.8 | 166000 |  |  | Kd [9]: 0.162 nM; koff [9]: 1.93e-05 s⁻¹; kon [9]: 119000 M⁻¹ s⁻¹
3 | B3 | 5.17 | 1910 |  |  |  |  |  |  |  |  | 0.288 | 994 | 
4 | B4 | 2.4 | 1760 |  |  |  |  |  |  |  |  | 0.259 | 841 | 
5 | B5 |  |  |  |  |  |  |  |  |  |  | 0.163 | 958 | 
6 | B6 |  |  | 2.18 | 77.2 | 4.56 | 116000 | 4.08 | 86500 | 10.8 | 125000 |  |  | 
7 | B7 |  |  | 0.571 | 71.2 | 0.564 | 67700 | 0.213 | 63400 | 1.53 | 133000 |  |  | Kd [9]: 0.0253 nM; koff [9]: 1.07e-05 s⁻¹; kon [9]: 423000 M⁻¹ s⁻¹
